Our source for the activity values is patent US20240412835.

The test system of this series is PD-1 TALEN (left/right pair, split FokI) (synthetic construct). Kind of series: cell_activity. To be noted: median of 6 TIL lots (38.09-74.73), NGS; document lists two candidate PD-1 TALEN pairs and does not state which was used.

PDCD1 exon 2 target site registered an activity of 54 % indels.
